Data: US20200377560A1 (WYL SCIENCES, published 2020)

Molecular target: T1, bovine serum albumin (bovine, UniProt P02769 25-607)
T1 construct: Control protein in the dot immunoblot; also called BSA
Test: dot immunoblot, BSA dotted as control
Source text: The fusion protein containing the full-length royalactin with a histidine tag (SEQ ID NO: 2), which was confirmed to have biological activity in Example 1, was produced in bacteria and purified. This protein was used to generate monoclonal antibodies by injection into mice with subsequent harvest of the spleen for generation of multiple hybridomas. Individual hybridomas were isolated and the antibody produced was screened using dot immunoblot assays. Various concentrations of royalactin were dotted onto the blot with bovine serum albumin (BSA) as a control.

T1 sequence (P02769 25-607 limits assumed): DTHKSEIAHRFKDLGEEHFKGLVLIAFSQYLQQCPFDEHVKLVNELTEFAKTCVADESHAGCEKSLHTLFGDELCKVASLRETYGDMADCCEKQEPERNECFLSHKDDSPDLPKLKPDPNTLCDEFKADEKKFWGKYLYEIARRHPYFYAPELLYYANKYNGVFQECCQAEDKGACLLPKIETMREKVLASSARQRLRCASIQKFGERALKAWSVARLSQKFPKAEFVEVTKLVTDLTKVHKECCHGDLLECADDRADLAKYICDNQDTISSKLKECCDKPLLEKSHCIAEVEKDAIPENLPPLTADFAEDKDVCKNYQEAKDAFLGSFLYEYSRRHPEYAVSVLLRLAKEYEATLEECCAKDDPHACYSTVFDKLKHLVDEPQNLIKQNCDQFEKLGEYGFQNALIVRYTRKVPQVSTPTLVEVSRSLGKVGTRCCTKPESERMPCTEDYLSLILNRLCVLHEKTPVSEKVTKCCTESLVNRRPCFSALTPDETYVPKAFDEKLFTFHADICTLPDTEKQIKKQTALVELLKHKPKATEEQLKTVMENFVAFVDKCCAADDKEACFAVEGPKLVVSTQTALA

B1: monoclonal antibody #19 (4G6C5) (antibody, V domains shown)
VH: VMLVESGGGLVKPGGSLKLSCAASGFTFSRYAMSWNRQTPEKRLEWVATISPGGGYIYYSDSVKGRFTISRDNARNTLYLQMSSLRSEDTAMYYCAGDYVDYWGQGTTLTVSS
VL: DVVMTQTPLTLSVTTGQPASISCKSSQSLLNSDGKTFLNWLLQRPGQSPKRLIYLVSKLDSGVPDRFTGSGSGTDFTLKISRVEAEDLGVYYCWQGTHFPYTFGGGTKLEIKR
notes: Mouse hybridoma monoclonal antibody; also called antibody 4G6C5; hybridoma #19
binding result: no binding (tested: 2 ng)
